Measurements as given in patent US20230212294A1.
Where a chain is given by its changes, count along the chain named.

Experiments:
Human B7-H3-his (human) [1] = target: Human B7-H3-his (human) (UniProt Q5ZPR3); assay: ELISA, human B7-H3 at protein level (second run)
Human B7-H3-his (human) [2] = target: Human B7-H3-his (human) (UniProt Q5ZPR3); assay: ELISA, antigen coated at 2 µg/mL

B1: IL-P7-C05 (antibody, V domains shown)
VH: EVQLVESGGDLVQPGGSLKLSCAASGFTFSSYGMSWVRQTPDKRLELVATINSNGGTTYYPDSVKGRFTISRDNAKHTLYLQMSSLKSEDTAMYYCTRNEEFRRGLAYWGQGTLVTVSA
VL: DIQMIQSPASLSVSVGETVTITCRASENIYSNLAWYQQKQGKSPQLLVYAATNLADGVPSRFSGSGSGTQYSLKINSLQSEDFGSYYCQHFWGTPPWTFGGGTKLEIK
What does the source list for B1?
EC50 (Human B7-H3-his (human) [1]): 0.044 µg/mL; EC50 (Human B7-H3-his (human) [2]): 0.0788 µg/mL

B2: IL-P6-C11 (antibody, V domains shown)
VH: EVQLQQSGPELVKPGASVRISCKTSGYTFTDYVIHWVKQNHGGSLEWIGGINRDSGGTTYNQKFQDKVTLTVDKSSNTAYMELRSLTSEDSAVYYCTKWKFPWYFDVWGAGTTVTVSS
VL: DIELTQSPAIMSASPGEKVTMTCSASSSISYMHWYQQKPGTSPKRWIYDTSKLASGVPARFSGSGSGTSYSLTISRVEAEDAATYYCQQWSSNPLTFGSGTKLEIK
Which results are given for B2?
EC50 (Human B7-H3-his (human) [1]): 0.182 µg/mL; EC50 (Human B7-H3-his (human) [2]): 0.23 µg/mL

B3: IL-P6-B07 (antibody, V domains shown)
VH: B2 VH with D31E
VL: B2 VL with E3V, I29V, P39S, R76S, V77M, S99A, I105L
How did the EC50 (Human B7-H3-his (human) [1]) turn out when B3 was run?
The EC50 was 0.194 µg/mL.

And the EC50 (Human B7-H3-his (human) [2])?
Its EC50 is 0.132 µg/mL.

B4: IL-P6-C08 (antibody, V domains shown)
VH: EVKLVESGGDLVKPGGSLKLSCAASGFTFSSYGMSWVRQTSDKRLEWVATISGGGRYTYYPDSVKGRFTISRDSSKNTLYLQMSSLKSEDTAMYYCVRHYDGYLDYWGLGTTLTVSS
VL: DIQMIQSPASLSASVGETVTITCRASENIYSYLAWYQQKQGKSPQLLVYNAKTLAEGVPSRFSGSGSGTQFSLKINSLQPEDFGSYYCQHHYGTPPYTFGGGTKLEIK
Which EC50 (Human B7-H3-his (human) [1]) does the source give for B4 here?
Its EC50 is 0.088 µg/mL.

And the EC50 (Human B7-H3-his (human) [2])?
Its EC50 is 0.0424 µg/mL.

B5: IL-P5-B01 (antibody, V domains shown)
VH: EVQLQESGPSLVKPSQTLSLTCSVTGDSITSGSWNWIRKFPGNKLEYMGYISYSGSIYYNPSLKSRISITRDTSKNQYYLQLNSVTTEDTATYYCARGNPAWFAYWGQGTLVTVSA
VL: DIVMTQSQKFMSTSVGDRVSVTCKASQNVGTNVAWYQQKPGQSPKALIYSASYRYSGVPDRFTGSGSGTDFTLTISNVQSEDLAEYFCQQYNSYPYTFGGGTKLEIK
For B5, which EC50 (Human B7-H3-his (human) [1]) is on record?
Its EC50 is 0.248 µg/mL.

And the EC50 (Human B7-H3-his (human) [2])?
Its EC50 is 0.137 µg/mL.

B6: IL-P7-A06 (antibody, V domains shown)
VH: QVQLQQSGPEVVRPGVSVKISCKGSGYTFTDYAMHWVKQSHAKSLEWIGIINTYNGNTNYNQKFKGKATMTVDKSSSTAYMEFARLTSEDSAIYYCARSRGPWDRYFDVWGAGTTVTVSS
VL: B5 VL with N32A, A46L, Y53N, S56T, V78M, E85D, N92S, Y96F, G100S
What does the source list for B6?
EC50 (Human B7-H3-his (human) [1]): 0.172 µg/mL; EC50 (Human B7-H3-his (human) [2]): 0.195 µg/mL

B7: IL-P7-C05-H4L3 (antibody, V domains shown)
VH: EVQLVESGGGLVQPGGSLRLSCAASGFTFSSYAMSWVRQAPGKGLELVAAINSNGGSTYYADSVKGRFTISRDNAKNTLYLQMSSLRAEDTAVYYCTRNEEFRRGLAYWGQGTLVTVSS
VL: DIQMTQSPSSLSASVGDRVTITCRASENIYSNLAWYQQKPGKAPKLLIYAASNLQSGVPSRFSGSGSGTDYTLTISSLQPEDFATYYCQHFWGTPPWTFGQGTKLEIK
B7 was tested. Which EC50 (Human B7-H3-his (human) [1]) did it give?
The EC50 was 0.0395 µg/mL.

B8: IL-P7-C05-H4L1 (antibody, V domains shown)
VH: B7 VH
VL: B7 VL with I48V, S52T, Q55A, S56D
B8 was tested. Which EC50 (Human B7-H3-his (human) [1]) did it give?
Its EC50 is 0.035 µg/mL.

B9: IL-P7-C05-H2L2 (antibody, V domains shown)
VH: B7 VH with A33G, A50T, S57T
VL: B7 VL with I48V, S52T
How did the EC50 (Human B7-H3-his (human) [1]) turn out when B9 was run?
Its EC50 is 0.051 µg/mL.

B10: IL-P7-C05-H2L1 (antibody, V domains shown)
VH: B7 VH with A33G, A50T, S57T
VL: B7 VL with I48V, S52T, Q55A, S56D
For B10, which EC50 (Human B7-H3-his (human) [1]) is on record?
Its EC50 is 0.111 µg/mL.

B11: IL-P7-C05-H3L3 (antibody, V domains shown)
VH: B7 VH with A33G
VL: B7 VL
Which EC50 (Human B7-H3-his (human) [1]) does the source give for B11 here?
The EC50 was 0.071 µg/mL.

B12: IL-P7-C05-H1L1 (antibody, V domains shown)
VH: B7 VH with A33G, A50T, S57T, A61P, N77H
VL: B7 VL with I48V, S52T, Q55A, S56D
With B12 as the binder, how does the EC50 (Human B7-H3-his (human) [1]) read?
The EC50 was 0.053 µg/mL.

B13: IL-P7-C05-H3L1 (antibody, V domains shown)
VH: B7 VH with A33G
VL: B7 VL with I48V, S52T, Q55A, S56D
Which EC50 (Human B7-H3-his (human) [1]) does the source give for B13 here?
The EC50 was 0.026 µg/mL.

B14: IL-P5-C06 (antibody, V domains shown)
VH: QVQLQQSGPELVRPGVSVKISCKGSGYTFTDYAIHWAKQGHAKSLEWIGIINTYNGNSNYNQNFKGKATMTVDKSSSTAYMELTRLTSEDSAIYYCARNYGSSFNWYFDVWGQGTTLTVSS
VL: DIVLTQSPTTMAASPGEKITITCSASSSISSNYLHWYQQKPGFSPKLLIYSTSNLASGVPARFSGSGSGTSYSLTISSVEAEDAATYYCQQYSGYPLTFGAGTKLELK
How did the EC50 (Human B7-H3-his (human) [1]) turn out when B14 was run?
The EC50 was 0.302 µg/mL.

What about the EC50 (Human B7-H3-his (human) [2]) of the same binder?
The EC50 was 0.177 µg/mL.

B15: IL-P5-C06-H2L2 (antibody, V domains shown)
VH: QVQLVQSGAEVKKPGASVKVSCKGSGYTFTDYAIHWGRQAPGQGLEWIGIINTYNGNSNYAQKFQGRATMTRDTSTSTAYMELSRLRSEDTAVYYCARNYGSSFNWYFDVWGQGTTVTVSS
VL: DIQLTQSPSSLSASVGDRITITCRASSSISSNYLHWYQQKPGKAPKLLIYSTSNLASGVPSRFSGSGSGTDFTLTISSVQPEDFATYYCQQYSGYPLTFGQGTKLELK
For B15, which EC50 (Human B7-H3-his (human) [1]) is on record?
Its EC50 is 0.147 µg/mL.

B16: IL-P5-C06-H2L4 (antibody, V domains shown)
VH: B15 VH
VL: B15 VL with L4M, I19V, A56Q, V79L
How did the EC50 (Human B7-H3-his (human) [1]) turn out when B16 was run?
The EC50 was 0.223 µg/mL.

B17: IL-P5-C06-H2L3 (antibody, V domains shown)
VH: B15 VH
VL: B15 VL with I19V, V79L
B17 was tested. Which EC50 (Human B7-H3-his (human) [1]) did it give?
The EC50 was 0.151 µg/mL.

B18: IL-P5-C06-H1L4 (antibody, V domains shown)
VH: B15 VH with G37A, R72V, T74K
VL: B15 VL with L4M, I19V, A56Q, V79L
With B18 as the binder, how does the EC50 (Human B7-H3-his (human) [1]) read?
The EC50 was 0.237 µg/mL.

B19: IL-P5-C06-H1L1 (antibody, V domains shown)
VH: B15 VH with G37A, R72V, T74K
VL: B15 VL with L11M, A44S, F72Y
Which EC50 (Human B7-H3-his (human) [1]) does the source give for B19 here?
The EC50 was 0.206 µg/mL.

B20: IL-P5-C06-H1L3 (antibody, V domains shown)
VH: B15 VH with G37A, R72V, T74K
VL: B15 VL with I19V, V79L
For B20, which EC50 (Human B7-H3-his (human) [1]) is on record?
The EC50 was 0.164 µg/mL.

B21: IL-P5-C06-H3L3 (antibody, V domains shown)
VH: B15 VH with G24A, I48M, A68V
VL: B15 VL with I19V, V79L
For B21, which EC50 (Human B7-H3-his (human) [1]) is on record?
The EC50 was 0.151 µg/mL.

B22: IL-P5-C06-H3L4 (antibody, V domains shown)
VH: B15 VH with G24A, I48M, A68V
VL: B15 VL with L4M, I19V, A56Q, V79L
B22 was tested. Which EC50 (Human B7-H3-his (human) [1]) did it give?
The EC50 was 0.156 µg/mL.

B23: IL-P6-D06 (antibody, V domains shown)
VH: QVQLQQSGPELVRPGVSVKISCKGSGYTFTDYAIHWVKQSHAKSLEWIGVINTYSGNTNYNQKFKGRATMTVDKSSSTAYMELARLTSEDSAIYFCARGVTYGSGYPYWYFDVWGAGTTVTVSS
VL: B5 VL
Which EC50 (Human B7-H3-his (human) [1]) does the source give for B23 here?
Its EC50 is 0.233 µg/mL.

What about the EC50 (Human B7-H3-his (human) [2]) of the same binder?
The EC50 was 0.174 µg/mL.
